Assay results: doi:10.1101/2022.10.11.511834 (bioRxiv, 2022)

Assays:
ubiquitin = ubiquitin (UniProt P0CG48 1-76); experiment: crystal structure
M1-linked di-Ub = M1-linked di-Ub (UniProt P0CG48); experiment: ITC

B1: HOIL-1 233-510 (C460A) (domain or fragment)
chain: DEEERARLAGEEEALRQYQQRKQQQQEGNYLQHVQLDQRSLVLNTEPAECPVCYSVLAPGEAVVLRECLHTFCRECLQGTIRNSQEAEVSCPFIDNTYSCSGKLLEREIKALLTPEDYQRFLDLGISIAENRSAFSYHCKTPDCKGWCFFEDDVNEFTCPVCFHVNCLLCKAIHEQMNCKEYQEDLALRAQNDVAARQTTEMLKVMLQQGEAMRCPQCQIVVQKKDGADWIRCTVCHTEICWVTKGPRWGPGGPGDTSGGCRCRVNGIPCHPSCQNCH
binding result (ubiquitin): binds

B2: HOIL-1 233-510 (helix-RBR), wild type (domain or fragment)
chain: DEEERARLAGEEEALRQYQQRKQQQQEGNYLQHVQLDQRSLVLNTEPAECPVCYSVLAPGEAVVLRECLHTFCRECLQGTIRNSQEAEVSCPFIDNTYSCSGKLLEREIKALLTPEDYQRFLDLGISIAENRSAFSYHCKTPDCKGWCFFEDDVNEFTCPVCFHVNCLLCKAIHEQMNCKEYQEDLALRAQNDVAARQTTEMLKVMLQQGEAMRCPQCQIVVQKKDGCDWIRCTVCHTEICWVTKGPRWGPGGPGDTSGGCRCRVNGIPCHPSCQNCH
Kd (M1-linked di-Ub): ~50 µM

B3: RNF216 (511-784, C688A, pSer719) (domain or fragment)
chain: QLIECRCCYGEFPFEELTQCADAHLFCKECLIRYAQEAVFGSGKLELSCMEGSCTCSFPTSELEKVLPQTILYKYYERKAEEEVAAAYADELVRCPSCSFPALLDSDVKRFSCPNPHCRKETCRKCQGLWKEHNGLTCEELAEKDDIKYRTSIEEKMTAARIRKCHKCGTGLIKSEGANRMSCRCGAQMCYLCRVSINGYDHFCQHPRSPGAPCQECSRCSLWTDPTEDDEKLIEEIQKEAEEEQKRKNGENTFKRIGPPLEKPVEKVQRVEAL
modifications: phosphoserine at 719
binding result (ubiquitin): binds
